# Assay results from article PMC7967050.
# Biological target: Recombinant human CD38 extracellular domain (amino acids 43–300, hCD38-ECD) (human) (UniProt P28907)
# Test: BLI; Octet Red96, room temperature; biotin conjugated hCD38-ECD captured on SA biosensor; scFv in PBS, 0.02% Tween-20, 0.05% BSA, pH 7.4; association 300 s, dissociation 1200 s; 1:1 Langmuir model; for RP02 (biphasic dissociation) only the initial 0-330 s fitted, apparent KD
binder,measurement,value
"anti-CD38 scFv antibody RP02 (scFv, V domains shown) VH: PAQLVESGPGLVKPSGTLSLTCAVSGGSISSSNWWSWVRQPPGKGLEWIGEIYHSGSTNYNPSLKSRVTISVDKSKNQFSLKLSSVTAADTAVYYCAREDYYYYMDVWGKGTTVTVQS VL: QSVLTQPPSVSAAPGQKVTISCSGSSSNIGNNYVSWYQQLPGTAPKLLIYDNNKRPSGIPDRFSGSKSGTSATLGITGLQTGDEADYYCGTWDSSLSAGVFGGGTKLTVL",Kd,8.6 nM
